In patent US20040176567A1, “Modified calcitonin” (priority 2001, published 2004):
Marks after values point to notes of the source that are not given here. Bridge positions count the residues as written; N and C are the ends. Ends that are not written are not given here.

Legend:
[1] = Aggregation studies, turbidity at 340 nm; assay type: physicochemical; details: for Aggregation time (turbidity at 340 nm) / Aggregation time (development of turbidity at 340 nm) / Aggregation time (half time, turbidity at 340 nm): 37° C., pH 7.2
Experimental: Aggregation analysis was carried out as reported previously (Arvinte, T. et al., 1993, J. Biol. Chem, 268, 6415-6422) using PBS 5 mM sodium phosphate, 145 mM NaCl, pH 7.2. (sodium phosphate saline buffer) pH 7.2 and adding a minor amount of sodium azide to prevent bacterial growth (0.1%). Samples were always incubated at 37° C.
Aggregation was monitored by measuring turbidity at 340 nm. Different concentrations of peptide were tested.

T47D (HTB 133) cells = assay: Calcitonin activity by cyclic AMP intracellular accumulation; assay type: cell-based, Human; details: for cAMP stimulation compared with basal levels: saturation concentration 1·10^−6 M, 15 min at 37° C., T47D cells
Excerpt: Activity tests may be carried out in suitable animal models using, for example chickens or mice. Activity can also be monitored in vitro, for example in cellular cultures. LLC-PKI kidney cells may be used, for which calcitonin has been reported to increase alkaline phosphatase activity and cAMP levels Wohlwend A et al (1985) Biochem Biophys Commen 131 537-542, Miyamoto K. I. et al (1998) Jpn. J. Pharmacol 76.193-198. […] We used a combination of two previously described systems with some modifications (Zimmerman, U. et al, 1997, J. Endocrinol. 155, 423-431; Miyamoto, K. I. et al, 1998, Jpn. J. Pharmacol 76, 193-198). Human ductal carcinoma T47D (HTB 133) cells were used for the assays.
T47D (HTB 133) cells were purchased from the American Type Culture Collection (ATCC) and grown in RPMI-1640 modified medium (ATCC) containing 2 mM L-glutamine, 10 mM HEPES, 1 mM sodium pyruvate, 4.5 g/L glucose and 1.5 g/L sodium bicarbonate. This medium was supplemented with 10% heat-inactivated fetal calf serum, 25 μg/mL gentamycin and 100 nM dexamethasone, this last to enhance the expression of calcitonin receptors. Cells were grown in a humidified atmosphere of 95% air-5% CO2 at 37° C.
Cyclic AMP (cAMP) accumulation was used to measure the degree of stimulation upon incubation in the presence of different calcitonin peptides. Typically cells were grown in multi-well plates until confluency was reached and then washed with pre-heated DPBS-glucose (Gibco, Invitrogen) to remove any traces of fetal serum. Sample solutions were prepared by dissolving different amounts of hCT, sCT and 6 chR (6 CT) in DPBS-glucose supplemented with 0.1% BSA and 1 mM IBMX (3-isobuthyl-1-methylxanthine). After being washed, cells were incubated for 15 min at 37° C. in the presence of the peptide solutions. Medium was then removed by aspiration and cells were rapidly frozen on dry-ice and then kept at −80° C. until cAMP measurements were carried out.
Cyclic AMP content of different samples was measured using a commercial AMP enzyme immunoassay (EIA) system (Biotrak, Amersham-Biotech) according to manufacturer's specifications. Different dilutions of cellular extracts were measured in order to cover the whole range of stimulation caused by calcitonin incubation. Saturation concentrations (1·10^−6 M) of the three peptides (hCT, sCT & 6chR) were used to establish the maximum capacity of stimulation for each one of the different sequences. […] All three peptides show clear stimulation effects confirming the calcitonin-like activity of the engineered 6 chR (6 CT) peptide.

[2] = Secondary structure (helical content) by circular dichroism; assay type: physicochemical; details: for Helical content compared with hCT: neutral and low pH (7.0 and 3.0); for Helical content by CD: neutral pH (7.0), 25° C., ellipticity at 222 nm
Experimental: FIG. 2. Secondary structure of calcitonin peptides measured by circular dichroism. Experiments reflect the thermal denaturation profile of the peptides at pH 7.0 and 3.0 respectively. Ellipticity was measured at 222 nm and reflects the α-helical content of the peptides. Helical content based on CD spectra calculations (25° C.) according to Chen et al. (1974). Biochemistry 13, 3350-59.
Circular dichroism and Nuclear magnetic resonance were used to characterise the structural properties of human (hCT), salmon (sCT) and 6 chR (6 chR) calcitonin. Peptide concentration was estimated by amino acid analysis.

[3] = target: calcitonin receptors on human ductal carcinoma T47D (HTB 133) cells (human) (UniProt P30988); assay: cell-based or functional assay; details: scale: orders of magnitude compared with the basal levels
UniProt P30988, sequence (P30988 25-474, stated change not applied): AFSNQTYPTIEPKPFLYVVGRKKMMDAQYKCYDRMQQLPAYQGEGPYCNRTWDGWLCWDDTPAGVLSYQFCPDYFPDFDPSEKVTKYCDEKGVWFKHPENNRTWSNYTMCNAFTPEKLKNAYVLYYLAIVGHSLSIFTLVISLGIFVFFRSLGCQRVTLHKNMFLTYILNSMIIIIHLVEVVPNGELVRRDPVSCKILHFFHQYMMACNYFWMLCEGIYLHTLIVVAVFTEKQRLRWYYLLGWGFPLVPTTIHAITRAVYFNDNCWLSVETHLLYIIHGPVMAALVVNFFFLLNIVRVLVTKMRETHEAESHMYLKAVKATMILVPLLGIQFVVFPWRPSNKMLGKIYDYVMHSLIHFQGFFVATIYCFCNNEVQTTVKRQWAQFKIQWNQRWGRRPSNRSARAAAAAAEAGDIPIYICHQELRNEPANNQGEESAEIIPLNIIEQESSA

**Q.** Which results are given for “CGNLSTCMLGKLTQELRKLHTFPQTAIGVGAP (disulfide 1-7; ends not checked) [6chR]”?
**A.** Time required to aggregate relative to the human peptide [1]: at least two orders of magnitude larger; Aggregation time (turbidity at 340 nm) ([1]; 1 mg/mL filtered 0.5 μm, no aggregation detected at the end of the experiment): (>10 months)^c; Aggregation time (turbidity at 340 nm) ([1]; 10 mM (~35 mg/mL) unfiltered): 18 days; Aggregation time (turbidity at 340 nm) ([1]; 10 mg/mL filtered 0.5 μm, no aggregation detected at the end of the experiment): (>10 months)^c; Aggregation time (turbidity at 340 nm) ([1]; 10 mg/mL unfiltered, no aggregation detected at the end of the experiment): (>10 months)^c; Aggregation behaviour compared with human calcitonin (FIG. 1) ([1]; 35 mg/mL, solutions not filtered): aggregates much more slowly than the human form; Time without detectable aggregation ([1]; concentrations of 10 mg/mL or below, unfiltered and filtered solutions): > 10 months; cAMP stimulation effect compared with hCT and sCT (T47D (HTB 133) cells; 1·10^−6 M, T47D cells (FIG. 3)): clearly higher than that of the hCT and even the sCT peptide; cAMP stimulation compared with basal levels (T47D (HTB 133) cells): close to three orders of magnitude; Helical content compared with hCT [2]: enhanced helical content; Helical content by CD [2]: 21.1%

**Q.** For “salmon calcitonin (from UniProt P01263 83-114) (peptide)”, which intracellular cAMP accumulation in T47D cells, peptide at saturation concentration 1·10^-6 M, 15 min, cAMP EIA [3] is on record?
**A.** 3

**Q.** Which “Aggregation time (development of turbidity at 340 nm)” value ([1]; 1 mg/mL filtered 0.5 μm) does the source give for “CGNLSTCMLGTYTQDFNKFHTFPQTAIGVGAP [Human, reference compound]” here?
**A.** ˜45 days

**Q.** And the “Aggregation time (half time, turbidity at 340 nm)” value ([1]; 10 mM (~35 mg/mL) unfiltered)?
**A.** 4 h

**Q.** And the “Aggregation time (development of turbidity at 340 nm)” value ([1]; 10 mg/mL filtered 0.5 μm)?
**A.** ˜26 days

**Q.** What about the “Aggregation time (half time, turbidity at 340 nm)” value ([1]; 10 mg/mL unfiltered) of the same substance?
**A.** ˜30 hours

**Q.** And the “cAMP stimulation compared with basal levels” value (T47D (HTB 133) cells)?
**A.** close to three orders of magnitude

**Q.** And the “Helical content by CD” value [2]?
**A.** 11.3%

**Q.** With “CSNLSTCVLGKLSQELHKLQTYPRTNTGSGTP [Salmon-1]” as the substance, how does the “cAMP stimulation compared with basal levels” value (T47D (HTB 133) cells) read?
**A.** close to three orders of magnitude

**Q.** What about the “Helical content compared with hCT” value [2] of the same substance?
**A.** higher helical content than hCT

**Q.** What about the “Helical content by CD” value [2] of the same substance?
**A.** 22.5%
